Data published in PMC10397247.
Read-outs that look alike come from different tables or passages of the source.

Columns and labels:
[1] = target: T1, 4H1765-AA; test: two-hybrid library CCmax;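 also: natural log of median RNA to DNA barcode read ratio; higher means stronger binding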
T1 chain: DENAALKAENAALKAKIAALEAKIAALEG

[2] = target: T2, 4H1821-AA; test: two-hybrid library CCmax; settings: mean of both orientations;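 also: natural log of median RNA to DNA barcode read ratio; higher means stronger binding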
T2 chain: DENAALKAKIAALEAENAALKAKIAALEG

[3] = target: T3, 4H1828-AA; test: two-hybrid library CCmax; settings: mean of both orientations;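 also: natural log of median RNA to DNA barcode read ratio; higher means stronger binding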
T3 chain: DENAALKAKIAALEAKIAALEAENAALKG

[4] = target: T4, 4H1930-AA; test: two-hybrid library CCmax; settings: mean of both orientations;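 also: natural log of median RNA to DNA barcode read ratio; higher means stronger binding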
T4 chain: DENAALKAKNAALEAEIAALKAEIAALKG

[5] = target: T5, 4H2124-AA; test: two-hybrid library CCmax;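 also: natural log of median RNA to DNA barcode read ratio; higher means stronger binding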
T5 chain: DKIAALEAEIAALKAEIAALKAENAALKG

[6] = target: T6, 4H2165-AA; test: two-hybrid library CCmax; settings: mean of both orientations;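 also: natural log of median RNA to DNA barcode read ratio; higher means stronger binding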
T6 chain: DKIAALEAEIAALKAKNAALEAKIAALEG

[7] = target: T7, 4H2253-AA; test: two-hybrid library CCmax; settings: mean of both orientations
T7 chain: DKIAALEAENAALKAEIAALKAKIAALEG

[8] = target: T8, 4H2330-AA; test: two-hybrid library CCmax; settings: mean of both orientations
T8 chain: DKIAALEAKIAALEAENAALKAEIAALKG

[9] = target: T9, 4H2343-AA; test: two-hybrid library CCmax; settings: mean of both orientations
T9 chain: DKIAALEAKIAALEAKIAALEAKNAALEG

[10] = target: T10, 4H2466-AA; test: two-hybrid library CCmax; settings: mean of both orientations
T10 chain: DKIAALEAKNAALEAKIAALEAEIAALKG

[11] = target: T11, 4H249-AA; test: two-hybrid library CCmax; settings: mean of both orientations
T11 chain: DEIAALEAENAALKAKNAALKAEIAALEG

[12] = target: T12, 4H2592-AA; test: two-hybrid library CCmax; settings: mean of both orientations
T12 chain: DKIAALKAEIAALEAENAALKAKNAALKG

[13] = target: T13, 4H2732-AA; test: two-hybrid library CCmax; settings: mean of both orientations
T13 chain: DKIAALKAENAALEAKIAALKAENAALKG

[14] = target: T14, 4H2774-AA; test: two-hybrid library CCmax; settings: mean of both orientations
T14 chain: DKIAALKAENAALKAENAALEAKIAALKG

[15] = target: T15, 4H2931-AA; test: two-hybrid library CCmax; settings: mean of both orientations
T15 chain: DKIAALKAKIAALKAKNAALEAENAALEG

[16] = target: T16, 4H3001-AA; test: two-hybrid library CCmax; settings: mean of both orientations
T16 chain: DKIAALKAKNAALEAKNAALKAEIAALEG

[17] = target: T17, 4H3015-AA; test: two-hybrid library CCmax; settings: mean of both orientations
T17 chain: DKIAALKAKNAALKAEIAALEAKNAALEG

[18] = target: T18, 4H3073-AA; test: two-hybrid library CCmax; settings: mean of both orientations
T18 chain: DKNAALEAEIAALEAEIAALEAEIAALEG

[19] = target: T19, 4H3438-AA; test: two-hybrid library CCmax; settings: mean of both orientations
T19 chain: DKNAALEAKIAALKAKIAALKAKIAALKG

[20] = target: T20, 4H347-AA; test: two-hybrid library CCmax; settings: mean of both orientations
T20 chain: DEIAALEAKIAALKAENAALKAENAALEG

[21] = target: T21, 4H406-AA; test: two-hybrid library CCmax; settings: mean of both orientations
T21 chain: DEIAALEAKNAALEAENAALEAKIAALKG

[22] = target: T22, 4H452-AA; test: two-hybrid library CCmax; settings: mean of both orientations
T22 chain: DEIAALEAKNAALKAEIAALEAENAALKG

[23] = target: T23, 4H56-AA; test: two-hybrid library CCmax; settings: mean of both orientations
T23 chain: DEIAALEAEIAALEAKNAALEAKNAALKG

[24] = target: T24, 4H_APH; test: two-hybrid library CCmax
T24 chain: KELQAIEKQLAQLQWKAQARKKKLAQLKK

[25] = target: T25, 4H_BCR; test: two-hybrid library CCmax; settings: mean of both orientations
T25 chain: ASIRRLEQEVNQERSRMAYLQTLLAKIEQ

[26] = target: 4H_GCN4; test: two-hybrid library CCmax
[27] = target: T26, Core_NNNN-es_KEEE; test: two-hybrid library CCmax
T26 chain: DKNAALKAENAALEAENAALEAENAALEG

[28] = target: GCN2_T; test: two-hybrid library CCmax; settings: mean of both orientations
[29] = target: T27, O10-bP; test: two-hybrid library CCNG1
T27 chain: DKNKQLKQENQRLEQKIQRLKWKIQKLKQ

[30] = target: T28, O11-bP; test: two-hybrid library CCNG1
T28 chain: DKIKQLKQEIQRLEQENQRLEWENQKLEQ

[31] = target: T29, O12-bP; test: two-hybrid library CCNG1
T29 chain: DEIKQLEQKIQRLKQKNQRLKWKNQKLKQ

[32] = target: T30, O13-bP; test: two-hybrid library CCNG1
T30 chain: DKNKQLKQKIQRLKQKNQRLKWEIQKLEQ

[33] = target: T31, O14-bP; test: two-hybrid library CCNG1
T31 chain: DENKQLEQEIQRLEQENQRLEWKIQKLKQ

[34] = target: T32, O15-bP; test: two-hybrid library CCNG1
T32 chain: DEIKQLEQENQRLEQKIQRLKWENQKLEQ

[35] = target: T33, O16-bP; test: two-hybrid library CCNG1
T33 chain: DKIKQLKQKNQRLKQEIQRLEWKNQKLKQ

[36] = target: T34, O2-bP; test: two-hybrid library CCNG1
T34 chain: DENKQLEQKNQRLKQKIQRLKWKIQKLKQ

[37] = target: T35, O3-bP; test: two-hybrid library CCNG1
T35 chain: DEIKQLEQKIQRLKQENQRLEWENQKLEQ

[38] = target: T36, O4-bP; test: two-hybrid library CCNG1
T36 chain: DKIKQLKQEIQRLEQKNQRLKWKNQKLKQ

[39] = target: T37, O5-bP; test: two-hybrid library CCNG1
T37 chain: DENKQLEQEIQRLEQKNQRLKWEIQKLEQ

[40] = target: T38, O6-bP; test: two-hybrid library CCNG1
T38 chain: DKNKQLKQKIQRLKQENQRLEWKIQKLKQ

[41] = target: T39, O7-bP; test: two-hybrid library CCNG1
T39 chain: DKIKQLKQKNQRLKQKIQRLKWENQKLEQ

[42] = target: T40, O8-bP; test: two-hybrid library CCNG1
T40 chain: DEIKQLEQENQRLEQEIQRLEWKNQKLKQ

[43] = target: T41, O9-bP; test: two-hybrid library CCNG1
T41 chain: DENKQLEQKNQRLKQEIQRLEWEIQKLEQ

[44] = target: T42, O1-bP; test: two-hybrid library CCNG1
T42 chain: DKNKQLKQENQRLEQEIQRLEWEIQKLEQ

[45] = target: T43, P11SHb; test: two-hybrid library CCNG1
T43 chain: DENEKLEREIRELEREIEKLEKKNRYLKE

[46] = target: T44, P12SHb; test: two-hybrid library CCNG1
T44 chain: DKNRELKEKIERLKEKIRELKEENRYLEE

[47] = target: T45, P1SHb; test: two-hybrid library CCNG1
T45 chain: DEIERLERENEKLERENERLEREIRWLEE

[48] = target: T46, P2SHb; test: two-hybrid library CCNG1
T46 chain: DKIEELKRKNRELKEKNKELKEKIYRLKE

[49] = target: T47, P3SHb; test: two-hybrid library CCNG1
T47 chain: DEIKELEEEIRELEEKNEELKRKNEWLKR

[50] = target: T48, P4SHb; test: two-hybrid library CCNG1
T48 chain: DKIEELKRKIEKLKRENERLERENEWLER

[51] = target: T49, P6SHb; test: two-hybrid library CCNG1
T49 chain: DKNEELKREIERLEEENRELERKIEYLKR

[52] = target: T50, P7SHb; test: two-hybrid library CCNG1
T50 chain: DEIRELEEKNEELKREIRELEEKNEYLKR

[53] = target: T51, P8SHb; test: two-hybrid library CCNG1
T51 chain: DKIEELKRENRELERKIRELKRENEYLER

[54] = target: T52, P9SHb; test: two-hybrid library CCNG1
T52 chain: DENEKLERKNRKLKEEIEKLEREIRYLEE

[55] = target: T53, P11mSN; test: two-hybrid library CCNG1
T53 chain: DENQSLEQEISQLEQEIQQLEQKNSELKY

[56] = target: T54, P12mSN; test: two-hybrid library CCNG1
T54 chain: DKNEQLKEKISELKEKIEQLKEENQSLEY

[57] = target: T55, P1mSN; test: two-hybrid library CCNG1
T55 chain: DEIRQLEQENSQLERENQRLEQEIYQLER

[58] = target: T56, P2mSN; test: two-hybrid library CCNG1
T56 chain: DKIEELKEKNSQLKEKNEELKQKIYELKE

[59] = target: T57, P3mSN; test: two-hybrid library CCNG1
T57 chain: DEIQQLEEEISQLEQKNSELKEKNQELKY

[60] = target: T58, P4mSN; test: two-hybrid library CCNG1
T58 chain: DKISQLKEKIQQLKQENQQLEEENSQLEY

[61] = target: T59, P5mSN; test: two-hybrid library CCNG1
T59 chain: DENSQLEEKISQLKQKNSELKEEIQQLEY

[62] = target: T60, P6mSN; test: two-hybrid library CCNG1
T60 chain: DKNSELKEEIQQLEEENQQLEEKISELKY

[63] = target: T61, P7mSN; test: two-hybrid library CCNG1
T61 chain: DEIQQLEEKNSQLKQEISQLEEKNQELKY

[64] = target: T62, P8mSN; test: two-hybrid library CCNG1
T62 chain: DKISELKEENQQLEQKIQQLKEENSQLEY

[65] = target: T63, P9mSN; test: two-hybrid library CCNG1
T63 chain: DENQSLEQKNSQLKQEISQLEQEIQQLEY

4H_GCN4, sequence (chain, as listed by the source): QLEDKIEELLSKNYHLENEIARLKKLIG

## DENAALKAENAALKAKIAALEAKIAALEG [4H1765-AA]
[1]
  interaction score: 2.4
[2]
  interaction score: -1.42
[3]
  interaction score: -0.973
[4]
  interaction score: -1.21
[5]
  interaction score: -1.72
[6]
  interaction score: -1.25
[7]
  interaction score: -1.14
[8]
  interaction score: -1.37
[9]
  interaction score: -1.45
[10]
  interaction score: -1.7
[11]
  interaction score: -1.63
[12]
  interaction score: -1.67
[13]
  interaction score: -1.76
[14]
  interaction score: -1.4
[15]
  interaction score: -1.83
[16]
  interaction score: -2.1
[17]
  interaction score: -1.7
[18]
  interaction score: -1.02
[19]
  interaction score: -0.901
[20]
  interaction score: -1.81
[21]
  interaction score: -1.54
[22]
  interaction score: -1.48
[23]
  interaction score: -1.76
[24]
  interaction score: -2.38
[25]
  interaction score: -1.93
[26]
  interaction score: -1.69
[27]
  interaction score: -0.679
[28]
  interaction score: -1.28

## DENAALEAKNAALKAKNAALKAKNAALKG [Core_NNNN-es_EKKK]
[27]; mean of both orientations
  interaction score: 1.14

## DKNKQLKQENQRLEQKIQRLKWKIQKLKQ [O10-bP]
[29]; mean of both orientations
  interaction score: -0.552
[30]
  interaction score: -1.97
[31]
  interaction score: -1.28
[32]
  interaction score: -0.892
[33]
  interaction score: -0.56
[34]
  interaction score: -0.788
[35]
  interaction score: -0.76
[36]
  interaction score: 0.624
[37]
  interaction score: -0.676
[38]
  interaction score: -0.826
[39]
  interaction score: -0.843
[40]
  interaction score: -1.19
[41]
  interaction score: -1.18
[42]
  interaction score: -1.81
[43]; mean of both orientations
  interaction score: 0.966

## DKNKQLKQENQRLEQEIQRLEWEIQKLEQ [O1-bP]
[44]
  interaction score: -0.355
[29]
  interaction score: -0.164
[30]
  interaction score: -0.513
[31]
  interaction score: -1.11
[32]
  interaction score: -0.754
[33]
  interaction score: -1.51
[34]
  interaction score: -1.88
[35]
  interaction score: -0.714
[36]
  interaction score: 1.06
[37]
  interaction score: -1.35
[38]
  interaction score: -1.05
[39]
  interaction score: -1.22
[40]
  interaction score: -0.442
[41]
  interaction score: -1.06
[42]
  interaction score: -1.95
[43]
  interaction score: 1.31

## DENEKLEREIRELEREIEKLEKKNRYLKE [P11SHb]
[45]
  interaction score: 0.241
[46]
  interaction score: 1.61
[47]
  interaction score: -0.267
[48]
  interaction score: 0.79
[49]
  interaction score: -0.138
[50]
  interaction score: 0.998
[51]
  interaction score: 1.17
[52]
  interaction score: 0.246
[53]
  interaction score: -0.421
[54]
  interaction score: 0.702

## DENQSLEQEISQLEQEIQQLEQKNSELKY [P11mSN]
[55]
  interaction score: 0.11
[56]
  interaction score: 1.46
[57]
  interaction score: -0.413
[58]
  interaction score: -1.32
[59]
  interaction score: -0.972
[60]
  interaction score: 0.374
[61]
  interaction score: -0.097
[62]
  interaction score: -0.793
[63]
  interaction score: -1.52
[64]
  interaction score: 0.0166
[65]
  interaction score: -1.27
